The target of this assay is T1, PhnI-his (E. coli, UniProt P16687 1-354).
T1 sequence (looked up): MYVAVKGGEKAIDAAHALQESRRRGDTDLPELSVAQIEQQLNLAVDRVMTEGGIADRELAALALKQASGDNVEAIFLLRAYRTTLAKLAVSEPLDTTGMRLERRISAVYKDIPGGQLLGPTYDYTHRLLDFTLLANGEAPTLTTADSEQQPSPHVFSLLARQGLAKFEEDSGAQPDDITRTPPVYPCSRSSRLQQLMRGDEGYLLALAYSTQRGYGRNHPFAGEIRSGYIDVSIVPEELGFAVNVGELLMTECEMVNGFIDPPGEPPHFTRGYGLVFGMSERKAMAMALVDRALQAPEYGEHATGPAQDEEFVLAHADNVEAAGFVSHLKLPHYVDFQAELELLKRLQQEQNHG
The assay can be described thus: N-terminal Edman sequencing of the purified complex.

Experimental findings from paper PMC4480679 (Biochemistry, 2015) are described below.

One may read the stoichiometry N as the number of molecules, sites or subunits per partner or assembly.

B1: PhnG (natural protein, E. coli, UniProt P16685 1-150, looked up)
chain: MHADTATRQHWMSVLAHSQPAELAARLNALNITADYEVIRAAETGLVQIQARMGGTGERFFAGDATLTRAAVRLTDGTLGYSWVQGRDKQHAERCALIDALMQQSRHFQNLSETLIAPLDADRMARIAARQAEVNASRVDFFTMVRGDNA
For B1, the “stoichiometry N” value came to 0.9 ± 0.1 PhnG per PhnI.
